± gives the uncertainty stated by the source.

A short description of the data set: amyloid nucleation score (Sup35N fusion, yeast selection) (log enrichment); library NNK1; higher = more nucleation; inactive = no reads after selection. In a few lines: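 For the nucleation score, DiMSum gave the log enrichment of output over input reads, centred on the mode score of non-aggregating sequences. Psi-negative yeast expressing Sup35N fused to peptides of 20 random codons were induced with 100 μM copper sulfate for 24 hours and grown 7 days at 30°C on medium lacking adenine and uracil. Input and output plasmid inserts were Illumina-sequenced, and sequences with under 100 input reads were excluded.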
For the substance YNSVLVTYYCKFSHTDSDSI, the amyloid nucleation score worked out at 3.04 ± 0.18.
In the case of LSAKLQFCITIEYALRVTKC it was -0.106 ± 1.7; in that of VILSYCLIFLK, -0.647 ± 0.48.
Then YLFPDVTRICCMGWSFTLLS, with 5.27 ± 0.053; and TGYGVAVGPFVGGDF, with -0.548 ± 1.5; and ASTMFQIYVHPNYTISLMLK, with 0.44 ± 0.28.
The substance HEGRS showed an amyloid nucleation score of -1.25 ± 1.2.
For LSMCYIFCDARYLYSQCFGV, the amyloid nucleation score came to 4.38 ± 0.12.
With SSVARIIWKFCRFSTVGVCF, the amyloid nucleation score turned out to be 0.858 ± 0.59.
As for NSYKNYCVLCECRC, the amyloid nucleation score amounted to 4.21 ± 0.07.
Then KAPAMHWLDRFVGYVPRV, with -0.011 ± 0.27; and SECYFSVWFANTALQNRV, with 0.034 ± 0.4.
For SGTRFLFEPSELINPYNHRC, the amyloid nucleation score turned out to be 1.15 ± 0.68.
As to GTSESLGYYSVLRMDIYFGS, the amyloid nucleation score result was “inactive”.
Take GFNLAW: the amyloid nucleation score is -0.547 ± 0.56.
Then GYILPLLDVDYVKSVMICFW, with 3.8 ± 0.094.
Then SYLYTVNLFDFYCCRLRGST, with 3.99 ± 0.1.
Then LAPASLSSSGYKNCFNRTVR, with 4.08 ± 0.11; and AFFVAVCASWFPGLYRY, with 0.298 ± 0.23; and SVLDFNNYMEIVAQVKGEDP, with “inactive”.
In the case of WYRVCV, the amyloid nucleation score was -0.603 ± 0.65.
In the case of GSGSDGQVGWFVANRDERRE it was 0.495 ± 0.38.
For the substance QCKRFCCIWVCNADFVAGAW, the amyloid nucleation score amounted to 7.745 ± 0.045.
In the case of VIMCYR it was -0.309 ± 0.29.
Turning to LRELSVCWPT, the amyloid nucleation score was -0.153 ± 0.44.
In the case of CLVKTSSVSTIWLVSCNTRT it was 0.648 ± 0.55; in that of NLILDQVNTYSLCSTIFI, 7.291 ± 0.058.
In the case of CDLFDFCISSKCRFKFLGRM it was -0.131 ± 0.9.
Then CVYGGIFYRTGYLYFEVYFY, with 0.134 ± 0.31; and HHFAYWCIVWPE, with 0.728 ± 0.54; and IMRRVLAFSCN, with -0.538 ± 0.34.
GSYECV had an amyloid nucleation score of 0.734 ± 1.2.
For the substance EWSFSYCGGVAFLSIEIEFL, the amyloid nucleation score entry is “inactive”.
In the case of LSEIFSCENGVVGSNSETLT it was -0.107 ± 0.35; in that of KSERERRVLMQRSDECVKSF, -0.297 ± 0.5; in that of LINDRPPSSAMERRNVATSS, 0.096 ± 0.57.
Then QFFLNTRLSLFALYL, with 5.35 ± 0.059; and RSWPHGCVAEQNTCSPHKLA, with 1.48 ± 0.55.
Substance SDCRKAFIMSHRSDGNLEFV displayed an amyloid nucleation score of 0.382 ± 1.4.
Consider ARWGFTWVKA, for which the amyloid nucleation score amounted to 0.372 ± 1.4.
Substance TAGFPLCYNCYEKP showed an amyloid nucleation score of -0.625 ± 0.35.
As for VCFMKCLLSCAIEYSRRLDI, the amyloid nucleation score amounted to 1.9 ± 0.64.
Then LHLFGQ, with 0.067 ± 0.38; and SIAFYFFKPLYVLVPNMFGY, with 6.15 ± 0.073; and PLLMGEEFRYSFSLCYNTSS, with -0.548 ± 1.7.
In the case of MLQCYLLFARYLLRNLSWGW it was 0.59 ± 0.62; in that of LAKFESSEVACSLFFAISLA, -0.997 ± 0.94; in that of QVWWDVNEPPDLTPQGSRWG, “inactive”.
In turn, TFYEHMVCGRHQSQAVWLVK had an amyloid nucleation score of 0.169 ± 0.6.
For the substance SFVNTNHRMRRCYTTENNPS, the amyloid nucleation score was -0.796 ± 0.68.
In the case of ALAWWVLFL, the amyloid nucleation score came out at 0.132 ± 1.
In the case of FHMAKRLYC it was 0.276 ± 0.46; in that of ETMGGLE, 0.107 ± 0.9; in that of TTFFSGIYKKASLFYRHFVL, -0.812 ± 0.28.
Then VSTSLGHLVDWGKSM, with “inactive”.
In the case of DIRVIVRIYQSIINL it was 3.15 ± 0.09; in that of FMDTAMTSFGSLSW, -0.317 ± 0.55; in that of RDWKSFSVCVFLIFIACNTG, -0.605 ± 0.4.
YFGKYLIWWFMSKLAV yielded an amyloid nucleation score of -0.388 ± 0.29.
Substance RRYCDTTVFHGYSVSCRAYG returned an amyloid nucleation score of -0.842 ± 0.74.
Take GASGGVTASLLKTRITVTWV: the amyloid nucleation score was -0.271 ± 0.79.
Then RRNVYFYVWYVSPNVMKYSN, with 3.84 ± 0.1; and ITYSTYLMSCGRSMYQGWKV, with 0.372 ± 0.23.
Consider GSICSVVVTMLVFSNKVTSL, for which the amyloid nucleation score was -0.353 ± 0.6.
In the case of DLGKVVNCYFLFYR it was 1.51 ± 0.25.
Then YMEKWAWRVVNESCASVVPP, with -0.272 ± 0.89.
Then WAHGLLFSYDSLHWYYICKV, with 0.304 ± 0.44; and RISYTDCMVEQLHPNQLWQN, with -0.069 ± 0.52.
VERFDLHLSD showed an amyloid nucleation score of 1.06 ± 0.6.
Then VPTVCYFSNQVR, with -0.434 ± 0.33; and SQKEFRKTAIKTHLMFRIHL, with -0.258 ± 0.29; and AMGSDDE, with -0.338 ± 1.3.
Then VVWEQSIDVILGYMGLGPD, with 0.381 ± 0.49.
In the case of CWDGRQIWVILVIVLIRINA it was -0.466 ± 0.91; in that of PDSFCFTMHLRKDEMMTSCK, -0.053 ± 1; in that of LRWPFCQGLYTYLCSLT, 1.39 ± 0.47.
Consider NGKEDKTCLWSVQPYCKSCE, for which the amyloid nucleation score was -0.475 ± 1.2.
As to IFYLTSVFVFSLLKFMTCER, the amyloid nucleation score is -1.17 ± 2.4.
In the case of VLPRVWCCNADNDSIVDFRG it was 2.35 ± 0.097; in that of KPLILVQNTKLPSRFCYPLT, -0.488 ± 0.74.
In the case of SGSDVILAYTPTPPGDSPVW it was 0.645 ± 0.61; in that of GMYLFECCYMGRRFSSWVGN, 0.055 ± 0.47.
Substance LLLYSGEFNS gave an amyloid nucleation score of -0.433 ± 0.39.
Regarding CRSSGADSRLLNIVKPCTLP, the amyloid nucleation score is -0.616 ± 0.33.
In the case of EWGNRRVFYVVMDGSRCPAS it was 0.1 ± 0.16; in that of LCEVRDCWVL, 0.783 ± 0.41.
Then NYALGFRAAWIIRLLRWSVE, with 0.254 ± 0.57; and VDLPFMLAKVR, with 0.856 ± 0.71.
In the case of SRNRLFVRRVRLANSLSFNA it was -0.226 ± 1.1; in that of SLLTCILGFPSCPGASMMFQ, 7.057 ± 0.067; in that of KRDFVSRLDESPN, -0.873 ± 1.1.
Turning to GSCCVKCDIHI, the amyloid nucleation score stood at 0.167 ± 0.53.
VSSTYNSFRFVSLGKFNHHC had an amyloid nucleation score of 2.71 ± 0.17.
Regarding YCDSWSVSFLICRSPFQNYM, the amyloid nucleation score is -1.12 ± 0.56.
In the case of YVGADMELHSRMVTDTYFAS it was -0.707 ± 1.1.
Then FIGGLHMALYDYPVEGSALA, with 0.622 ± 0.76; and PHFLGQFYSDVPCDCGLCWY, with 0.193 ± 0.9; and SCMMYQMCNWHERAPSTVLL, with 0.908 ± 0.58.
In the case of LSVIFTLSFLTAIFAVGIWS it was 0.301 ± 0.23; in that of NTYGAGSLGITWQQVCLTYE, 0.767 ± 0.62.
In turn, RRSESCMFYVMWYGNRYLEG returned an amyloid nucleation score of 0.638 ± 0.18.
In the case of NWVAYIPKDNVWVVRGKLKG it was 0.753 ± 0.53.

The values above are taken from the supplement of paper PMC12042874.
